Test system: MS2 coat protein
Test: apparent KD of MS2 coat protein; designed switch direction (-1 OFF switch, 1 ON switch): -1; higher = weaker reporter binding
Summary of the method: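 Designed RNA switches with common flanks were transcribed on Illumina chips by stalled E. coli RNA polymerase and titrated with SNAP-549-labelled MS2 coat protein, from 0.7 or 1.5 nM doubling to 3 µM, in Tris-HCl pH 7.5 buffer with KCl, MgCl2, BSA, DTT, tRNA and Tween-20. Steps lasted 0.8–1.5 h (lowest) to 10–20 min (highest). Titrations ran without input, with 200 uM small-molecule ligand, or with an oligonucleotide input. Normalised cluster fluorescence was curve-fitted, and apparent KD is the per-design median over clusters.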

[1] = Eterna round: R95, input ligand: FMN 200 uM
[2] = Eterna round: R95, input ligand: microRNA oligo, concentration not stated
[3] = Eterna round: R95, input ligand: none
[4] = input ligand: microRNA oligo, concentration not stated

Row | Sequence | apparent KD of MS2 coat protein (input ligand: FMN 200 uM) | apparent KD of MS2 coat protein (input ligand: none) | apparent KD of MS2 coat protein [1] | apparent KD of MS2 coat protein [2] | apparent KD of MS2 coat protein [3] | apparent KD of MS2 coat protein [4]
1 | UUGAAUUAUAAGGAUAUGGGAGUCGAUAGACACCCAGAAGGUAUAACAUGAGGAUCACCCAUGUGUCCUAUCAA [Mod of Eli 25 - Jieux - Exclusion 6] (Eterna round: R97, puzzle: Exclusion 6) | 33.6 nM | 18.2 nM |  |  |  | 
2 | UUGACUGGCGAGGAUAUCUCGCAAUAGUUAGGGAGAGAAGGUGCUACAUGAGGAUCACCCAUGUCAAACGAACC [Eternabot (L1) Solution 58] (Eterna round: R97, puzzle: Exclusion 6) | 17.7 nM | 21.9 nM |  |  |  | 
3 | UUGAGCAGACGGAGAUCCAACAUGAGGAUCACCCAUGUCUCAAAAGCUUUUUGCUCAUCUUAUCGUACCUUGGUGCU [Mat - Sensor v3 - turn-off var 1 - JL Mod - D15] (puzzle: Sensor v3, turn-off variant 1) |  |  | 155 nM | 9.75 nM | 302 nM | 
4 | UUGAGGUAAGGAUAUAUUAGGAGCGAAGUUACUUGUUUUUUAUAGAAGGUACAUGAGGAUCACCCAUGUGAAUA [JR_Exclu4_Sub062] (puzzle: Exclusion 4) |  |  |  | 24.7 nM |  | 
5 | UUGAUGUGAGGAUAUAUUUAGUGUUUUCUUUAUGUUUUAUAACUUGAGGAUCACCCAAGUAGAAGGCGCUACGU [JR_Ex2_Sub066] (Eterna round: R97, puzzle: Exclusion 2) | 19 nM | 13.9 nM |  |  |  | 
6 | UUGCAGUCGUCAGGAUAUAGUAUUACGGCCAUUUUUUUUUUCAUACAUGAGGAUCACCCAUGUCGCUAGAAGGGAUUAUCGAUU [salish99_ExNG2_r04_103] (Eterna round: R96, puzzle: Exclusion NG 2) | 71 nM | 67 nM |  |  |  | 57.1 nM
7 | UUGUACAUAGGAUAUAGUUGUUUGUACAUGAGGAUCACCCAUGUUAUGUAUGUUUUGCUUCUAGAAGGAUGUUGUU [JR_E5_Sub004] (Eterna round: R96, puzzle: Exclusion 5) | 28.5 nM | 34.5 nM |  |  |  | 25.8 nM
8 | UUGUACAUAGGAUAUAGUUGUUUGUACAUGAGGAUCACCCAUGUUAUGUAUGUUUUGCUUCUAGAAGGAUGUUGUU [JR_E5_Sub004] (puzzle: Exclusion 5) |  |  |  | 28 nM |  | 
9 | UUGUGCACGCUGCGGUCCUACAUGAGGAUCACCCAUGUGGUCUGGUGGCGUGGGUCACCGGACUUGGCUCGUCUUGU [salish99_S_TOV1_R5_060] (Eterna round: R97, puzzle: Sensor, turn-off variant 1) | 36.2 nM | 42.3 nM |  |  |  | 
10 | UUGUUACAUGAGGAUCACCCAUGUGAGGAUAUGGUUCAGUACUGUCAUGUCAAGUACUCCAGAAGGCACAUGUU [1st #30] (Eterna round: R97, puzzle: Exclusion 1) | 566 nM | 508 nM |  |  |  | 
11 | UUGUUACGAUUAGGAUAUUAUUGAUUGGACAGUAUGAUUUACAUGAGGAUCACCCAUGUUACUUUUAAGAAGGAAUCGUAUUAU [JR_ExcNG2_Sub090] (Eterna round: R96, puzzle: Exclusion NG 2) |  |  |  |  |  | 14.8 nM
12 | UUGUUAUAUGUAGGAUAUGCAUAUUAUUAUUAUGCAGAAGGACAUGAGGAUCACCCAUGUAUAUUAUUGUUAUAUGUUAUAUAU [Title] (Eterna round: R96, puzzle: Exclusion NG 1) |  |  |  |  |  | 16.6 nM
13 | UUGUUAUAUGUAGGAUAUGCGUGUUAUUAUUAGGCAGAAGGACAUGAGGAUCACCCAUGUAUGUUGUUGUUAUAUAUUAUAUAU [Title] (Eterna round: R96, puzzle: Exclusion NG 1) | 22.9 nM | 25.6 nM |  |  |  | 17.8 nM
14 | UUGUUCCAUGUAGGAUAUGCAUAUUCUCAUUAUGCAGAAGGACAUGAGGAUCACCCAUGUAUGUUAUUAUUAUAUGUUACAUGU [Design 2] (Eterna round: R96, puzzle: Exclusion NG 1) | 613 nM | 78.5 nM |  |  |  | 54.6 nM
15 | UUGUUGUAUGUAGGAUAUGCAUGUUAUUAUUAUGCAGAAGGACAUGAGGAUCACCCAUGUAUAUUAUUAUUAUAUGUUAUAUAU [Title] (Eterna round: R96, puzzle: Exclusion NG 1) | 22.2 nM | 23.9 nM |  |  |  | 17.9 nM
16 | UUUAAAACAUAGGAUAUCGAAUUAAUCAUUUAACGAGAAGGAUGAACAUGAGGAUCACCCAUGUGGUAUCAUGG [Mat - Exclusion 6 - JL Mod - D19] (puzzle: Exclusion 6) |  |  | 282 nM | 274 nM | 270 nM | 
17 | UUUAAGGCUGAGGAUAUGUGGUCCGCCAAAGACAUAGAAGGUAGCACAUGAGGAUCACCCAUGUCACGAAAAGU [Eternabot (L1) Solution 81] (Eterna round: R97, puzzle: Exclusion 6) | 54.3 nM | 52.7 nM |  |  |  | 

Row | Sequence | apparent KD of MS2 coat protein (input ligand: FMN 200 uM) | apparent KD of MS2 coat protein (input ligand: none) | apparent KD of MS2 coat protein [1] | apparent KD of MS2 coat protein [2] | apparent KD of MS2 coat protein [3] | apparent KD of MS2 coat protein [4]
18 | UUUAAGUCAGGAUAUCGUUAAUUUAAUAAAUAAAUUUAAUUCGAGAAGGGACAUGAGGAUCACCCAUGUAAUUU [Ex4 #1] (Eterna round: R97, puzzle: Exclusion 4) | 45.5 nM | 34.8 nM |  |  |  | 
19 | UUUAAUCGUGACAUGGGUGACAUGAGGAUCACCCAUGUCACAAGCUUCUCGCUCGUCUUAUAAUUAACCCAUGUCAC [LRO Sensor-off var1-13 mod of Stov1-13-A1 by Brourd] (Eterna round: R97, puzzle: Sensor, turn-off variant 1) | 17.3 nM | 18.7 nM |  |  |  | 
20 | UUUAAUUUUUUUUUUUUACAAGCUUUUUGCUCGUCUUAUACAUGAGGAUCACCCAUGUAGGUGAAGGAUAAAUUAUC [JMF 27] (puzzle: Sensor v3, turn-off variant 2) |  |  | 25.9 nM | 66.4 nM | 35.9 nM | 
21 | UUUAAUUUUUUUUUUUUACAAGCUUUUUGCUCGUCUUAUACAUGAGGAUCACCCAUGUGAAUGGGAGGUAAAUUAUC [JMF 73] (puzzle: Sensor v3, turn-off variant 2) |  |  | 175 nM | 192 nM | 116 nM | 
22 | UUUAAUUUUUUUUUUUUACAAGCUUUUUGCUCGUCUUAUACAUGAGGAUCACCCAUGUGAGUGGGAAGUAAAUUAUC [JMF 55] (puzzle: Sensor v3, turn-off variant 2) |  |  | 20.5 nM | 248 nM | 19.9 nM | 
23 | UUUAAUUUUUUUUUUUUACAAGCUUUUUGCUCGUCUUAUACAUGAGGAUCACCCAUGUGGGUGGAAAGUAAAUUAUC [JMF 47] (puzzle: Sensor v3, turn-off variant 2) |  |  | 38.9 nM | 96.3 nM | 56.2 nM | 
24 | UUUACAAGCUAAUGAUCCCACAUGAGGAUCACCCAUGUUGCUGCCGGUGACGGUAGCAUAACAUUUGCUCGUCUUAU [JL TOV1 3.58] (Eterna round: R97, puzzle: Sensor, turn-off variant 1) | 1180 nM | 1010 nM |  |  |  | 
25 | UUUACAAGCUUAAGAUCCCACAUGAGGAUCACCCAUGUUGCUGCCGUGAGGUAGCUUUUAACUUAUGCUCGUCUUAU [JL TOV1 3.42] (Eterna round: R97, puzzle: Sensor, turn-off variant 1) | 94 nM | 110 nM |  |  |  | 
26 | UUUAGUUCAGGAUAUGUAGACAUUAACAUGAGGAUCACCCAUGUAGAUCCUGAAUUGGCUACAGAAGGGAGCAUUU [Mod of Brourd 10 - Jieux - Exclusion 5] (Eterna round: R97, puzzle: Exclusion 5) | 109 nM | 28.4 nM |  |  |  | 
27 | UUUAGUUCAGGAUAUGUAGAUUUAAACAUGAGGAUCACCCAUGUAGAUCCUGAUCCUGCUACAGAAGGGAACAUUU [Exclusion 5: 2:a mod1] (Eterna round: R97, puzzle: Exclusion 5) | 72.9 nM | 24.3 nM |  |  |  | 
28 | UUUAUCCGAGGAUAUACAGAAUGAAUGUGAAAUGAAUGAUGACAUGAGGAUCACCCAUGUAGAAGGCGGAUAUA [Default title] (Eterna round: R97, puzzle: Exclusion 2) | 404 nM | 57.8 nM |  |  |  | 
29 | UUUAUGUCAGGAUAUGAGGAGUAGAACAAUAGUACUACUCCUCAGAAGGGACAUGAGGAUCACCCAUGUUCCUC [Fiskers Ex 4 Super stable 44 mod 25] (puzzle: Exclusion 4) |  |  |  | 18.5 nM |  | 
30 | UUUCGUGCGCGGGUUUUUUACAUGAGGAUCACCCAUGUCCUCUGCUUGUCUUGUCUUGGGCUUUUUUUGGGUUCGGG [-19.7, -39 kcal, A 8%] (Eterna round: R97, puzzle: Sensor, turn-off variant 1) | 771 nM | 868 nM |  |  |  | 
31 | UUUGAUUAAGUGAGGAUAUACUGUUUGUAUUGAUUGUAGAAGGUACAUGAGGAUCACCCAUGUUUAGUAUUUAU [JR_BME4_Sub037] (puzzle: Brourd's mod of Exclusion 4) |  |  |  | 19.2 nM |  | 
32 | UUUGCAAGCUAAAGAUCCCACAUGAGGAUCACCCAUGUUGCUGCCGUGAGGUAGCUUUUAACUUUUGCUCGUCUUAU [JL TOV1 3.44] (Eterna round: R97, puzzle: Sensor, turn-off variant 1) | 183 nM | 217 nM |  |  |  | 
33 | UUUGUAUAUGAAGGAUAUACUUAACAUGAGGAUCACCCAUGUGGUGUUGUGAGUGAGUGAGUUUAGUAGAAGGUCAAUGAUUUU [JMF's solution 71] (Eterna round: R96, puzzle: Exclusion NG 2) | 531 nM | 317 nM |  |  |  | 218 nM
34 | UUUGUCUGUGUGAGGAUAUACUUGUUUGGGUUUUUGUAGAAGGCACAUGAGGAUCACCCAUGUAUUUUGUCGUG [JR_BME4_Sub018] (Eterna round: R96, puzzle: Brourd's mod of Exclusion 4) | 77.7 nM | 41.9 nM |  |  |  | 34.1 nM

Source: the supplement of paper PMC9170038
